According to IntAct's records for PubMed 22960633:

Columns and labels:
arl3_mouse Arl3 = arl3_mouse Arl3 (UniProt Q9WUL7)
gnat1_human GNAT1 = gnat1_human GNAT1 (UniProt P11488)
Sequence of gnat1_human GNAT1 (P11488 whole entry): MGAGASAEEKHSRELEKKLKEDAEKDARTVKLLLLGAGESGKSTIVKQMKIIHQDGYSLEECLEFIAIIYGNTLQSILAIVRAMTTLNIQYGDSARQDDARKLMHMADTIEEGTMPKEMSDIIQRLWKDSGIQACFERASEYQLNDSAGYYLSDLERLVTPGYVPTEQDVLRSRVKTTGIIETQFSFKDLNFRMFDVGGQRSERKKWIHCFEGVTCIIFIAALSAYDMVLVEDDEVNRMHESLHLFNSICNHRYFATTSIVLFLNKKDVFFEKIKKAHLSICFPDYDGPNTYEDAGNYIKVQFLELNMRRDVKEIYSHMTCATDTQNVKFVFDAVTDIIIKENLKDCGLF

Sequence of arl3_mouse Arl3 (Q9WUL7 whole entry): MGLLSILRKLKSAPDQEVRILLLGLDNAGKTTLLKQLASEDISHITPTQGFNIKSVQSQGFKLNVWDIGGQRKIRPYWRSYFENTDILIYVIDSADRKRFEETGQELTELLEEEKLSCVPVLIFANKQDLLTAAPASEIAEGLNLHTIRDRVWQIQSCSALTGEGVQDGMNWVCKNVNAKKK

effect of a mutation on the interaction (arl3_mouse Arl3): decreasing interaction | effect of a mutation on the interaction (gnat1_human GNAT1): decreasing interaction
Substance: Protein unc-119 homolog A (Homo sapiens) (from UniProt Q13432) Y194A
